Experimental data: article PMC11470957 (2024)

B1: KLHDC2 substrate binding domain (KLHDC2^SBD, 15-361) (domain or fragment)
chain: GPAFESYESMELACPAERSGHVAVSDGRHMFVWGGYKSNQVRGLYDFYLPREELWIYNMETGRWKKINTEGDVPPSMSGSCAVCVDRVLYLFGGHHSRGNTNKFYMLDSRSTDRVLQWERIDCQGIPPSSKDKLGVWVYKNKLIFFGGYGYLPEDKVLGTFEFDETSFWNSSHPRGWNDHVHILDTETFTWSQPITTGKAPSPRAAHACATVGNRGFVFGGRYRDARMNDLHYLNLDTWEWNELIPQGICPVGRSWHSLTPVSSDHLFLFGGFTTDKQPLSDAWTYCISKNEWIQFNHPYTEKPRLWHTACASDEGEVIVFGGCANNLLVHHRAAHSNEILIFSVQP
B2: BRD3^BD2 (second bromodomain of BRD3, residues 306-416) (domain or fragment)
chain: GKLSEHLRYCDSILREMLSKKHAAYAWPFYKPVDAEALELHDYHDIIKHPMDLSTVKRKMDGREYPDAQGFAADVRLMFSNCYKYNPPDHEVVAMARKLQDVFEMRFAKMP

What was measured:
[1] = molecular target: T1, BRD4^BD2 (second bromodomain of BRD4, residues 334-460) (UniProt O60885 334-460); assay: ITC; ternary complex with PROTAC SJ46421 (BRD4BD2-SJ46421 in cell)
[2] = molecular target: T2, BRD2^BD2 (second bromodomain of BRD2, residues 344-455) (UniProt P25440 344-455); assay: ITC; ternary complex with PROTAC SJ46421 (BRD2BD2-SJ46421 in cell)
[3] = molecular target: B2; assay: ITC; ternary, BRD3 BD2 pre-bound to SJ46423
[4] = molecular target: T3, BRD3^BD2 E344G swap mutant (UniProt Q15059 306-416, E344G); assay: ITC; ternary complex with PROTAC SJ46421
[5] = molecular target: T4, BRD2^BD2 G-to-E swap mutant (G382E) (UniProt P25440 344-455, G-to-E swap mutation (G382)); assay: ITC; ternary complex with PROTAC SJ46421
[6] = molecular target: T5, BRD4^BD2 G-to-E swap mutant (G386E) (UniProt O60885 334-460, G-to-E swap mutation (G386)); assay: ITC; ternary complex with PROTAC SJ46421
[7] = molecular target: T2, BRD2^BD2 (second bromodomain of BRD2, …); assay: ITC; ternary, BRD2 BD2 pre-bound to PROTAC SJ46421
[8] = molecular target: B2; assay: ITC; ternary, BRD3 BD2 pre-bound to PROTAC SJ46421
[9] = molecular target: T3, BRD3^BD2 E344G swap mutant; assay: ITC; ternary, with SJ46421
[10] = molecular target: T4, BRD2^BD2 G-to-E swap mutant (G382E); assay: ITC; ternary, with SJ46421
[11] = molecular target: T5, BRD4^BD2 G-to-E swap mutant (G386E); assay: ITC; ternary, with SJ46421
[12] = molecular target: B2; assay: ITC; ternary complex with PROTAC SJ46423 (BRD3BD2-SJ46423 in cell)
[13] = molecular target: B2; assay: ITC; ternary complex with PROTAC SJ46421 (BRD3BD2-SJ46421 in cell)
[14] = molecular target: T1, BRD4^BD2 (second bromodomain of BRD4, …); assay: ITC; ternary, BRD4 BD2 pre-bound to PROTAC SJ46421
[15] = molecular target: T6, KLHDC2 R56A mutant (UniProt Q9Y2U9 15-361, R56A); assay: ITC; ternary complex with PROTAC SJ46421
[16] = molecular target: KLHDC2 R112 to alanine mutant (UniProt Q9Y2U9 15-361, R112 to alanine); assay: ITC; ternary, with SJ46421
[17] = molecular target: KLHDC2 H346/R347 to alanine mutant (UniProt Q9Y2U9 15-361, H346 to alanine | R347 to alanine, H346A and R347A taken as one combined double mutant, because the text lists H346/R347 as one of four patches mutated to alanine; whether they were combined is not printed explicitly); assay: ITC; ternary, with SJ46421
[18] = molecular target: KLHDC2 K291 to alanine mutant (UniProt Q9Y2U9 15-361, K291 to alanine); assay: ITC; ternary, with SJ46421
[19] = molecular target: T6, KLHDC2 R56A mutant; assay: ITC; ternary, with SJ46421

B1
Kd [1]: 109 nM
Kd [2]: 208 nM
Kd [3]: 251 nM
Kd [4]: 181 nM
Kd [5]: 95.4 nM
Kd [6]: 24.5 nM
Kd [7]: 208 nM
Kd [8]: 19 nM
Kd [9]: 181 nM
Kd [10]: 95.4 nM
Kd [11]: 24.5 nM
Kd [12]: 251 nM
Kd [13]: 19 nM
Kd [14]: 109 nM

B2
Kd [15]: 273 nM
Kd [16]: 39.7 nM
Kd [17]: 50.9 nM
Kd [18]: 25.6 nM
Kd [19]: 273 nM
